The text below walks through data of the supplement of paper PMC7877785.

± gives the uncertainty stated by the source.

A short description of this series: self-splicing fitness, log relative to wild type (ln ratio); higher = more splicing; Tetrahymena group I intron in knt gene, E. coli kanamycin selection, DiMSum; sequences stand for … in CUCUCU…GGAGGGAAAAGUUAUCAGGCAUGCACCUGGUAGCUAGUCUUUAAACCAAUAGAUUGCAUCGGUUUAAAAGGCAAGACCGUCAAAUUGCGGGAAAGGGGUCAACAGCCGUUCAGUACCAAGUCUCAGGGGAAACUUUGAGAUGGCCUUGCAAAGGGUAUGGUAAUAAGCUGACGGACAUGGUCCUAACCACGCAGCCAAGUCCUAAGUCAACAGAUCUUCUGUUGAUAUGGAUGCAGUUCACAGACUAAAUGUCGGUCGGGGAAGAUGUAUUCUUCUCAUAAGAUAUAGUCGGACCUCUCCUUAAUGGGAGCUAGCGGAUGAAGUGAUGCAACACUGGAGCCGCUGGGAACUAAUUUGUAUGCGAAAGUAUAUUGAUUAGUUUUGGAGUACUCGUGGUCG
In a few lines: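 The eight P1ex-region nucleotides of an intron in the knt kanamycin-resistance gene on pET-22b(+) were all randomised and the library put into E. coli BL21(DE3). Six replicate transformations were grown overnight at 37°C or 30°C on LB agar with or without 25 μg/mL kanamycin, together with 100 μg/mL carbenicillin, 50 μM IPTG and 0.2% rhamnose. Colonies were pooled and amplicon-sequenced on an Illumina HiSeq 2500. Fitness from DiMSum is the error-weighted combination of wild-type-normalised replicate fold changes, kanamycin over none.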

Turning to GUCCAGCAAUAUUACGAGGA, the “self-splicing fitness (ln)” value (30 °C) is -2.98 ± 0.27 and the “self-splicing fitness (ln)” value (37 °C) was -2.64 ± 0.3.
In the same order, the values of GUCCAGCAAUAUUACGAGGU are -2.34 ± 0.11 and -1.34 ± 0.13.
In the same order, the values of GUCCAGCAAUAUUACGAGUC are -1.23 ± 0.097 and -0.164 ± 0.098.
Consider GUCCAGCAAUAUUACGAGUU, for which the “self-splicing fitness (ln)” value was -1.98 ± 0.095 (30 °C) and -1.26 ± 0.091 (37 °C).
On to GUCCAGCAAUAUUACGCGCG, for which the “self-splicing fitness (ln)” value is, setting by setting: (30 °C) -1.58 ± 0.093; (37 °C) -0.665 ± 0.096.
For GUCCAGCAAUAUUACGCGGU, in that order: -3.19 ± 0.24 and -2.14 ± 0.17.
In the same order, the values of GUCCAGCAAUAUUACGCUGC are -1.85 ± 0.34 and 0.221 ± 0.36.
With GUCCAGCAAUAUUACGCUUC, the “self-splicing fitness (ln)” value by setting is: (30 °C) -1.38 ± 0.083; (37 °C) -0.138 ± 0.11.
Take GUCCAGCAAUAUUACGGAGC: the “self-splicing fitness (ln)” value by setting is: (30 °C) -2.17 ± 0.087; (37 °C) -2.68 ± 0.088.
For the sequence GUCCAGCAAUAUUACGGAUC, the “self-splicing fitness (ln)” value reads like this: (30 °C) -4.49 ± 0.28; (37 °C) -3.62 ± 0.27.
As to GUCCAGCAAUAUUACGGCUA, the “self-splicing fitness (ln)” value was -0.25 ± 0.068 (30 °C) and 0.143 ± 0.073 (37 °C).
In the same order, the values of GUCCAGCAAUAUUACGGGGU are -3.62 ± 0.19 and -2.65 ± 0.15.
In the case of GUCCAGCAAUAUUACGUAUC, the “self-splicing fitness (ln)” value was -0.611 ± 0.096 (30 °C) and -0.264 ± 0.11 (37 °C).
As to GUCCAGCAAUAUUACGUGCG, the “self-splicing fitness (ln)” value by setting is: (30 °C) -1.15 ± 0.085; (37 °C) -1.14 ± 0.12.
For GUCCAGCAAUAUUACGUGGU, the “self-splicing fitness (ln)” value (30 °C) is -1.61 ± 0.059 and the “self-splicing fitness (ln)” value (37 °C) was -1.03 ± 0.064.
For GUCGAGCAAUAUUACGAAGC, in that order: -2.37 ± 0.19 and -1.85 ± 0.23.
Consider GUCGAGCAAUAUUACGACAC, for which the “self-splicing fitness (ln)” value was -0.476 ± 0.2 (30 °C) and -1.13 ± 0.17 (37 °C).
As for GUCGAGCAAUAUUACGACCA, the “self-splicing fitness (ln)” value (37 °C) was -0.961 ± 0.42.
Consider GUCGAGCAAUAUUACGACCG, for which the “self-splicing fitness (ln)” value (30 °C) is -1.69 ± 0.5.
Regarding GUCGAGCAAUAUUACGAGGC, the “self-splicing fitness (ln)” value (30 °C) was -3.01 ± 0.21 and the “self-splicing fitness (ln)” value (37 °C) is -3.06 ± 0.31.
For the sequence GUCGAGCAAUAUUACGCGAU, the “self-splicing fitness (ln)” value (30 °C) is -3.36 ± 0.27.
As to GUCGAGCAAUAUUACGCGUC, the “self-splicing fitness (ln)” value runs as follows: (30 °C) -1.43 ± 0.15; (37 °C) -2.49 ± 0.2.
As to GUCGAGCAAUAUUACGCUAA, the “self-splicing fitness (ln)” value (37 °C) was -1.5 ± 0.2.
For the sequence GUCGAGCAAUAUUACGGACA, the “self-splicing fitness (ln)” value (30 °C) was -1.8 ± 0.49 and the “self-splicing fitness (ln)” value (37 °C) was -1.95 ± 0.47.
Consider GUCGAGCAAUAUUACGGCAA, for which the “self-splicing fitness (ln)” value was -3.13 ± 0.31 (30 °C) and -1.76 ± 0.29 (37 °C).
For GUCGAGCAAUAUUACGGUUA, in that order: -2.03 ± 0.49 and 0.142 ± 0.25.
For GUCGAGCAAUAUUACGUCGA, in that order: -3.97 ± 0.42 and -2.65 ± 0.44.
For the sequence GUCGAGCAAUAUUACGUGCA, the “self-splicing fitness (ln)” value (30 °C) is -2.29 ± 0.22 and the “self-splicing fitness (ln)” value (37 °C) is -0.701 ± 0.17.
Regarding GUCGAGCAAUAUUACGUUGU, under “37 °C”, the “self-splicing fitness (ln)” value is -2.78 ± 0.37.
Consider GUCUAGCAAUAUUACGAACU, for which the “self-splicing fitness (ln)” value is, setting by setting: (30 °C) -1.9 ± 0.2; (37 °C) -1.12 ± 0.19.
For GUCUAGCAAUAUUACGACGC, in that order: -0.0791 ± 0.12 and 0.364 ± 0.14.
In the same order, the values of GUCUAGCAAUAUUACGACGU are -0.253 ± 0.15 and 0.696 ± 0.17.
For GUCUAGCAAUAUUACGACUC, in that order: -0.625 ± 0.13 and -0.52 ± 0.15.
Take GUCUAGCAAUAUUACGAGCU: the “self-splicing fitness (ln)” value was -2.17 ± 0.33 (30 °C) and -0.962 ± 0.23 (37 °C).
In the same order, the values of GUCUAGCAAUAUUACGAUUA are -0.177 ± 0.17 and 0.177 ± 0.12.
Take GUCUAGCAAUAUUACGCAGU: the “self-splicing fitness (ln)” value is -1.25 ± 0.13 (30 °C) and 0.0079 ± 0.15 (37 °C).
In the same order, the values of GUCUAGCAAUAUUACGCGGG are -3.1 ± 0.19 and -1.98 ± 0.17.
In the same order, the values of GUCUAGCAAUAUUACGCUCC are -1.44 ± 0.18 and 0.66 ± 0.2.
Turning to GUCUAGCAAUAUUACGCUGG, the “self-splicing fitness (ln)” value runs as follows: (30 °C) -2.84 ± 0.36; (37 °C) -2.2 ± 0.27.
